Source: paper PMC11481384

Target: Keap1 Kelch domain (amino acid residues 309 to 624) (human) (UniProt Q14145)
Test: ITC; MicroCal ITC200, 25 °C, 20 mM Tris‐HCl and 150 mM NaCl; Kelch and synthetic PGAM5 peptides; 19 injections at 2‐min intervals

Sequence of Keap1 Kelch domain (amino acid residues 309 to 624) (human) (Q14145 309-624): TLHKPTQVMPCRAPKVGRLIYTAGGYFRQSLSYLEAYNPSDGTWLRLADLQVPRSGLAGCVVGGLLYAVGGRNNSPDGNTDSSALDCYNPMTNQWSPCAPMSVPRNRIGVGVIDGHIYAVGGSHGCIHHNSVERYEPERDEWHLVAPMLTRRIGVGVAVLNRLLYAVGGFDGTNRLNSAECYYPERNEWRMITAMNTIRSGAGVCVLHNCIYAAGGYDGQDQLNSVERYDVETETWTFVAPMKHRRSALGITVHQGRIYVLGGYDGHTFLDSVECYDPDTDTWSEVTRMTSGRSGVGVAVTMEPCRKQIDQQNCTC

Kd [µM] | Substance
37.7 | E79A mutant based on the PGAM5 20‐mer peptide
0.107 | PGAM5 20‐mer peptide (based on the ESGE motif)
